Earlier results, collected in publication PMC6176727.

Tests used:
[1] = molecular target: CLV1 ectodomain (Arabidopsis thaliana) (UniProt Q9SYQ8)
[2] = molecular target: CLV1 (Arabidopsis thaliana) (UniProt Q9SYQ8)

Kd [1]: 1 nM
Kd [2]: 280 nM
Substance: CLV3p (13-amino-acid) (from UniProt Q9XF04)
